Data from patent US20170008955A1 (CNJ, published 2017).
Where a chain is given by its changes, count along the chain named. One block for each binder: values may come before it.

How the values were obtained:
cSNK:BSA conjugate [1] = biological target: T1, cSNK:BSA conjugate (bovine, head-to-tail cyclized; conjugated to BSA carrier); experiment: BLI 2:1 fit, site 2 (kdis2); 12.5 nM row
T1 construct: also called BSA-cSNK
Protocol: (§1) Biolayer interferometry (Octet […], ForteBio) was used to qualitatively/quantitatively assess the interactions between humanized versions of 5E3 and cSNK:BSA conjugate. […] MAbs were loaded onto sensors and then washed in PBST. Each sensor was associated with one of several cSNK:BSA standards (100 nM to 0 nM) and then washed in PBST. Data was processed statistically using ForteBio Data Analysis software to determine the strength of antigen-antibody binding (KD). For each mAb analyzed, a 2:1 model provided the “best fit”.

cSNK:BSA conjugate [2] = biological target: T1, cSNK:BSA conjugate; experiment: BLI (Octet), KD2; unlabelled reference row, taken as hu5E3
Aβ42 oligomers [3] = biological target: T2, Aβ42 oligomers (UniProt P05067 672-713); experiment: Biacore (SPR), Aβ oligomer preparation AβO1 (HQ AβO1); lower end of the range
T2 construct: domain: Aβ42; immobilized preparation containing monomers, low and high molecular weight oligomers; also called Amyloid beta oligomers; Aβ oligomers
T2 sequence (P05067 672-713 limits assumed): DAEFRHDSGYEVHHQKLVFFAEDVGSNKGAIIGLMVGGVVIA
Protocol: (§2) Using a Biacore™ 3000, Aβ42 oligomers were immobilized (containing monomers, low and high molecular weight oligomers) and BSA (reference surface) on 4 separate flow cells of a biosensorchip. Murine 5E3 or humanized 5E3 IgG1, IgG2, and IgG4 were then diluted, sequentially injected over the different immobilized peptides and antibody binding monitored in real time. Binding data was collected by sequentially injecting buffer blanks, 1/10 dilutions of m5E3 or 1 uM dilutions of hu5E3 control over separate flow cells immobilized with BSA or Aβ42 oligomer on another biosensor chip at a flow rate of 10 μl/minute. Association was allowed for 200 seconds, followed by dissociation for 500 seconds and binding responses collected 10 seconds before the end of the […]. All binding responses were double-referenced by subtracting buffer blanks and BSA reference surface binding.
(§3) Results: As shown in FIG. 9A and FIG. 9B, the humanized 5E3 isotypes bound to the Aβ42 oligomer preparation. Affinity constants were determined for hu5E3 IgG1 Aβ42 oligomer preparations.

Ovalbumin [4] = biological target: T3, Ovalbumin (UniProt P01012 2-386); experiment: Western blot of BSA, BSA-cSNK and ovalbumin probed with hu5E3-IgG1
T3 sequence (looked up): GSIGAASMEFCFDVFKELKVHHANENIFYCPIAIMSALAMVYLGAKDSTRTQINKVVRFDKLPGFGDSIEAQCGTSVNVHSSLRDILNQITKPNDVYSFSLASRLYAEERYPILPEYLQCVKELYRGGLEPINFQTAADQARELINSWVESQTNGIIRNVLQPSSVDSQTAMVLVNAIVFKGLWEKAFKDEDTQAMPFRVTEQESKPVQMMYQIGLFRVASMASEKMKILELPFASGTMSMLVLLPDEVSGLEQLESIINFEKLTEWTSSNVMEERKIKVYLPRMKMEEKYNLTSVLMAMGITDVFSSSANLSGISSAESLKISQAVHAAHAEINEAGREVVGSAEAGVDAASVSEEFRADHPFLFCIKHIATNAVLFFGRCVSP

cSNK:BSA conjugate [5] = biological target: T1, cSNK:BSA conjugate; experiment: BLI 2:1 fit, site 2 (KD2); 1.56 nM row
Protocol: as §1

cSNK:BSA conjugate [6] = biological target: T1, cSNK:BSA conjugate; experiment: BLI 2:1 fit, site 2 (KD2); 12.5 nM row
Protocol: as §1

cSNK:BSA conjugate [7] = biological target: T1, cSNK:BSA conjugate; experiment: BLI 2:1 fit, site 2 (kon2); 12.5 nM row
Protocol: as §1

cSNK:BSA conjugate [8] = biological target: T1, cSNK:BSA conjugate; experiment: BLI (Octet), KD1; unlabelled reference row, taken as hu5E3; unlabelled reference row at the top of the table
cSNK:BSA conjugate [9] = biological target: T1, cSNK:BSA conjugate; experiment: BLI 2:1 fit, site 2 (kdis2); 50 nM row
Protocol: as §1

Aβ42 oligomers [10] = biological target: T2, Aβ42 oligomers; experiment: Biacore (SPR), Aβ oligomer preparation AβO1 (HQ AβO1); upper end of the range
Protocol: as §2, §3

cSNK:BSA conjugate [11] = biological target: T1, cSNK:BSA conjugate; experiment: BLI 2:1 fit, site 1; 1.56 nM row
Protocol: as §1

cSNK:BSA conjugate [12] = biological target: T1, cSNK:BSA conjugate; experiment: BLI 2:1 fit, site 2 (KD2); 6.25 nM row
Protocol: as §1

Ovalbumin [13] = biological target: T3, Ovalbumin; experiment: Western immunoblot, FIGS. 3A-D
Protocol: A 4-12% gradient SDS-PAGE gel was run with cSNK-BSA. The gel was then transferred to a nitrocellulose membrane. The next day the mAbs (1° Ab) were diluted to 2 μg/ml to 5 μg/ml depending on the antibody, and used to probe the membrane at room temperature (RT). The membranes were then probed with anti-mouse IgG-HRP (2° Ab).

cSNK:BSA conjugate [14] = biological target: T1, cSNK:BSA conjugate; experiment: BLI (Octet RED96), 2:1 kinetics, KD2, summary table; KD2, summary table
Protocol: as §1
Table 7 summarizes the affinity constants of humanized 5E3 IgG1, IgG2 and IgG4 constructs. The KD ranges were determined using 2:1 kinetics of binding of analyte (BSA-cSNK) in solution to two different binding sites on the surface (immobilized bivalent, monospecific 5E3) in comparison to murine 5E3 using biolayer interferometry (Octet RED96).

cSNK:BSA conjugate [15] = biological target: T1, cSNK:BSA conjugate; experiment: BLI 2:1 fit, site 1 (KD1); 1.56 nM row
Protocol: as §1

cSNK:BSA conjugate [16] = biological target: T1, cSNK:BSA conjugate; experiment: BLI 2:1 fit, site 1 (KD1); 100 nM row
Protocol: as §1

cSNK:BSA conjugate [17] = biological target: T1, cSNK:BSA conjugate; experiment: BLI 2:1 fit, site 1 (KD1); 50 nM row
Protocol: as §1

cSNK:BSA conjugate [18] = biological target: T1, cSNK:BSA conjugate; experiment: BLI 2:1 fit, site 1 (KD1); 6.25 nM row
Protocol: as §1

T1 sequence (P02769 25-607 limits assumed): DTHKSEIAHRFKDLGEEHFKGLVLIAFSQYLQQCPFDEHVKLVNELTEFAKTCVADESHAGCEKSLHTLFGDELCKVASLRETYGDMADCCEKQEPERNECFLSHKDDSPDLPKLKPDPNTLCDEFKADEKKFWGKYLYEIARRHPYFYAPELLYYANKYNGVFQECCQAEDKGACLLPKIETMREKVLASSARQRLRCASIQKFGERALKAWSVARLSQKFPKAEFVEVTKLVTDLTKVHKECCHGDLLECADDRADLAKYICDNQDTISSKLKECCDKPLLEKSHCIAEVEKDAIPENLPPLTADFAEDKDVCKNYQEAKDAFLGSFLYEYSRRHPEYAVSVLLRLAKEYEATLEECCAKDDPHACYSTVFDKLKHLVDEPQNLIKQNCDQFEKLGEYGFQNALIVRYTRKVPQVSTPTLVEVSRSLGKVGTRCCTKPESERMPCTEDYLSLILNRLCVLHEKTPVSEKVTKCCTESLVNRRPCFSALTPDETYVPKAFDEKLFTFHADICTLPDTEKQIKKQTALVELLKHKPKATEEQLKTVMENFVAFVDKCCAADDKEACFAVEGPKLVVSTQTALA

koff (cSNK:BSA conjugate [1]): 0.012 s⁻¹ | Kd (cSNK:BSA conjugate [2]): 0.0151 µM | Kd (Aβ42 oligomers [3]): ≥ 182 µM | binding result (Ovalbumin [4]): no binding | Kd (cSNK:BSA conjugate [5]): 0.00182 µM | Kd (cSNK:BSA conjugate [6]): 0.00182 µM | kon (cSNK:BSA conjugate [7]): 6.56e+06 M⁻¹ s⁻¹ | Kd (cSNK:BSA conjugate [8]): 0.00627 µM | koff (cSNK:BSA conjugate [9]): 0.012 s⁻¹ | Kd (Aβ42 oligomers [10]): ≤ 3290 µM | Kd (cSNK:BSA conjugate [11]): 0.000463 µM | koff (cSNK:BSA conjugate [11]): 0.000825 s⁻¹ | kon (cSNK:BSA conjugate [11]): 1.78e+06 M⁻¹ s⁻¹ | Kd (cSNK:BSA conjugate [12]): 0.00182 µM
B1: hu5E3-IgG1 (antibody, V domains shown)
VH: QVQLQQSGPEVKKPGASVKISCKASGYIFTSYYIQWVIHAPGQGLEWIGWIYPGNVNTKYNEKFKGKATLTADKSSSTAYMELSSLTSEDTAVYFCARMDYEAHYWGQGTTVTVSS
VL: DIQMTQSPSSLSASVGDRVTITCRASQEISGYLTWLQQKPEGAIKRLIYAASTLDSGVPKRFSGSRSGSDYSLTISSLQPEDFATYNCLQYANYPRTFGGGTKLEIK
notes: human IgG1/kappa; also called humanized 5E3 IgG1; IHA variant

koff (cSNK:BSA conjugate [1]): 0.0229 s⁻¹ | Kd (cSNK:BSA conjugate [5]): 0.00304 µM | Kd (cSNK:BSA conjugate [6]): 0.00304 µM | kon (cSNK:BSA conjugate [7]): 7.52e+06 M⁻¹ s⁻¹ | koff (cSNK:BSA conjugate [9]): 0.0229 s⁻¹ | Kd (cSNK:BSA conjugate [11]): 0.000633 µM | koff (cSNK:BSA conjugate [11]): 0.00055 s⁻¹ | kon (cSNK:BSA conjugate [11]): 868000 M⁻¹ s⁻¹ | Kd (cSNK:BSA conjugate [12]): 0.00304 µM | binding result (Ovalbumin [13]): no binding
B2: hu5E3-IgG4 (antibody, V domains shown)
VH: B1 VH
VL: B1 VL
notes: human IgG4/kappa; also called humanized 5E3 IgG4

koff (cSNK:BSA conjugate [1]): 0.0338 s⁻¹ | Kd (cSNK:BSA conjugate [6]): 0.00639 µM | kon (cSNK:BSA conjugate [7]): 5.28e+06 M⁻¹ s⁻¹ | koff (cSNK:BSA conjugate [9]): 0.0338 s⁻¹ | Kd (cSNK:BSA conjugate [12]): 0.00639 µM | binding result (Ovalbumin [13]): no binding
B3: hu5E3-IgG2 (antibody, V domains shown)
VH: B1 VH
VL: B1 VL
notes: human IgG2/kappa; also called humanized 5E3 IgG2

koff (cSNK:BSA conjugate [1]): 0.0226 s⁻¹ | Kd (cSNK:BSA conjugate [5]): 0.00159 µM | Kd (cSNK:BSA conjugate [6]): 0.00159 µM | Kd (cSNK:BSA conjugate [14]): 0.00159 µM | kon (cSNK:BSA conjugate [7]): 1.42e+07 M⁻¹ s⁻¹ | koff (cSNK:BSA conjugate [9]): 0.0226 s⁻¹ | Kd (cSNK:BSA conjugate [11]): 0.00033 µM | koff (cSNK:BSA conjugate [11]): 0.000428 s⁻¹ | kon (cSNK:BSA conjugate [11]): 1.29e+06 M⁻¹ s⁻¹ | Kd (cSNK:BSA conjugate [12]): 0.00159 µM
B4: murine monoclonal antibody 5E3 (antibody, V domains shown)
VH: B1 VH with V11L, K12V, K19R, A40R, E82Q, S85R, T91S, V112L
VL: B1 VL with V15L, D17E, T20S, I21L, E41D, A43T, Q79E, P80S, T85D
notes: mouse antibody of the 5E3 hybridoma; also called murine 5E3; m5E3

Kd (cSNK:BSA conjugate [15]): 0.000557 µM | koff (cSNK:BSA conjugate [1]): 0.0175 s⁻¹ | Kd (cSNK:BSA conjugate [16]): 0.000557 µM | Kd (cSNK:BSA conjugate [5]): 0.00394 µM | Kd (cSNK:BSA conjugate [6]): 0.00394 µM | kon (cSNK:BSA conjugate [7]): 4.44e+06 M⁻¹ s⁻¹ | koff (cSNK:BSA conjugate [9]): 0.0175 s⁻¹ | Kd (cSNK:BSA conjugate [17]): 0.000557 µM | koff (cSNK:BSA conjugate [11]): 0.000386 s⁻¹ | kon (cSNK:BSA conjugate [11]): 692000 M⁻¹ s⁻¹ | Kd (cSNK:BSA conjugate [18]): 0.000557 µM | Kd (cSNK:BSA conjugate [12]): 0.00394 µM
B5: rehu5E3-IgG4 (antibody, V domains shown)
VH: B1 VH with K12V, T87R, T91S, T111L
VL: B1 VL with V15L, I21L, G42K, S72T, T85D
notes: human IgG4/kappa; also called IgG4 rehu version
